The values that follow come from patent US20250019439A1 (Adimab, published 2025).

One assay deals with T1, ADI-26924.
T1 construct: anti-CD3 antibody made in CHO cells, captured by anti-human Fc
The assay is described as follows: SPR Carterra avidity, CHO anti-ID. The protocol: (§1) Kinetic analysis was conducted at 25° C. in an HBSTE running buffer system (Carterra Cat #3630) using a Carterra LSA (Carterra USA, Salt Lake City, UT). The sample compartment was maintained at 20° C. for the duration of each experiment.
(§2) For antibody capture experiments, a goat anti-human Fc antibody (Jackson ImmunoResearch) was covalently coupled to an HC30M sensor chip surface via standard amine coupling (1:1 EDC:NHS) and then blocked with ethanolamine (1.0 M, pH 8.5). Covalent coupling steps were performed in 25 mM MES buffer (Carterra, Cat #3625) plus 0.05% Tween20. The anti-CD3 antibodies (100 nM in running buffer) were flowed over discrete regions of interest on the chip surface for 5 minutes. […] Dissociation of the anti-idiotype antibodies was monitored for 300s. Several blank buffer samples were injected over the entire chip surface at the start of each non-regenerative kinetic cycle. The preceding blank buffer injection was used for blank surface subtraction. At the end of each non-regenerative kinetic cycle, all surfaces were regenerated via two 30s injections of 10 mM glycine, pH 1.7.
(§3) In Tables 10A-10C, anti-CD3 antibodies are listed by ADI number or CTL number in the first column. […] CTL-62223 is mosunetuzumab, CTL-62227 is odronextamab, CTL-62228 is glofitamab, and CTL-62240 is ONO-4685. […] “W.B.” means weak binding under the conditions of this assay and thus a KD was unable to be assigned. “N.B.” means no binding under the conditions of this assay.

The target of assay [1] is T2, ADI-22523 IgG.
T2 construct: anti-CD3 IgG
T2 sequence (VH, as listed by the source limits assumed, chain 1 of 2): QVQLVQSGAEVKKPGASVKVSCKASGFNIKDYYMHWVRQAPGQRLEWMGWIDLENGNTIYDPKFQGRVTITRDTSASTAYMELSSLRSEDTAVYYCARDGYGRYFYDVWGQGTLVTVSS
T2 sequence (VL, as listed by the source limits assumed, chain 2 of 2): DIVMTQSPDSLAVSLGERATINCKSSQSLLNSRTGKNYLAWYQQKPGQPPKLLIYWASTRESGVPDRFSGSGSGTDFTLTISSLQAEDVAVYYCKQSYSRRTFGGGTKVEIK
Description: BLI; tip ADI-34145 IgG, solution anti-CD3 IgG. The protocol: (§4) ForteBio affinity measurements were performed generally as previously described (Estep et al., MAbs. 2013 5(2):270-8). Briefly, ForteBio affinity measurements were performed by loading antibody IgG or Fabs on-line onto AHC sensors. Sensors were equilibrated off-line in assay buffer for 30 minutes and then monitored on-line for 60 seconds for baseline establishment. For avid binding measurement, sensors with loaded antibodies were exposed to IgG or Fab solutions for 3 minutes, afterwards they were transferred to assay buffer for 3 minutes for off-rate measurement. Kinetics data were fit using a 1:1 binding model in the data analysis software provided by ForteBio to obtain equilibrium dissociation constant (KD=koff/kₒₙ) values. In each column, tip-immobilized antibodies are listed first and solution antibodies second.
(§5) In each column, tip-immobilized antibodies are listed first and solution antibodies second.

Assay [2] has as its target T3, ADI-26906 IgG.
T3 construct: anti-CD3 IgG
The assay is described as follows: BLI; tip ADI-34145 IgG, solution anti-CD3 IgG. The protocol: as §4, §5

A further assay deals with T4, ADI-26916 IgG.
T4 construct: anti-CD3 IgG
T4 sequence (VH, as listed by the source, chain 1 of 2): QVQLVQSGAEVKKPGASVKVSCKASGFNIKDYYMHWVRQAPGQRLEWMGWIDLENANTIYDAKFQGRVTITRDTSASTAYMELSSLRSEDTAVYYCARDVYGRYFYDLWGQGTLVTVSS
T4 sequence (VL, as listed by the source, chain 2 of 2): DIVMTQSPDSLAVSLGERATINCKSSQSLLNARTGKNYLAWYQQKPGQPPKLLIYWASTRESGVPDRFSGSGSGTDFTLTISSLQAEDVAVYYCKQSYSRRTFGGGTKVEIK
The assay is described as follows: BLI; tip ADI-34145 IgG, solution anti-CD3 IgG. How it is done:
as §4, §5
In general terms: BLI is a label-free optical method that tracks binding on a fibre tip over time.

The target in assay [3] is T5, ADI-26920 IgG.
T5 construct: anti-CD3 IgG
T5 sequence (VH, as listed by the source limits assumed, chain 1 of 2): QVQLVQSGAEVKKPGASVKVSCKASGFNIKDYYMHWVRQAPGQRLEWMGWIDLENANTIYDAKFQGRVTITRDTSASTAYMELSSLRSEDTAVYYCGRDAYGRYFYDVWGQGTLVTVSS
T5 sequence (VL, as listed by the source limits assumed, chain 2 of 2): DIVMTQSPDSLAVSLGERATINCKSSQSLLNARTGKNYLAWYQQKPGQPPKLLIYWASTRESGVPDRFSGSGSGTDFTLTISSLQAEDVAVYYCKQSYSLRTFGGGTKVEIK
Description: BLI; tip ADI-34145 IgG, solution anti-CD3 IgG. How it is done:
as §4, §5

Another assay addresses T6, ADI-26954 IgG.
T6 construct: anti-CD3 IgG
Description: BLI; tip ADI-34145 IgG, solution anti-CD3 IgG. The protocol:
as §4, §5

For the next assay, the target named is T7, ADI-26913 IgG.
T7 construct: anti-CD3 IgG
T7 sequence (VH, as listed by the source limits assumed, chain 1 of 2): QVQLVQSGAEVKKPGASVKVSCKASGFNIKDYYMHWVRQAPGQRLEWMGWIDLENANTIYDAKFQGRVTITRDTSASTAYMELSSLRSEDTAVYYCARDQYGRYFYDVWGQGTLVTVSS
The assay is described as follows: BLI; tip ADI-34145 IgG, solution anti-CD3 IgG. How it is done: as §4, §5

The target in a further assay is T8, ADI-26920 Fab.
T8 construct: anti-CD3 Fab by papain digestion of the IgG
The assay is described as follows: BLI; tip ADI-34145 IgG, solution anti-CD3 Fab. How it is done: as §4
(§6) CTL-19613 is an IgG1 antibody prepared with anti-CD3 variable domains corresponding with those of clone 12C described in United States Publication Number US 2010/0183615 (e.g., see paragraphs 469-479 and FIG. 25 thereof), which also make up the CD3 binding domain of the bispecific antibody pasotuxizumab. […] In each column, tip-immobilized antibodies are listed first and solution antibodies second.

Another assay concerns the target T9, CTL-19613 Fab.
T9 construct: anti-CD3 Fab by papain digestion of the IgG1
Description: BLI; tip ADI-34145 IgG, solution anti-CD3 Fab. The protocol:
as §4, §6

The target in assay [4] is T10, ADI-22523 Fab.
T10 construct: anti-CD3 Fab by papain digestion of the IgG
The assay is described as follows: BLI; tip ADI-34145 IgG, solution anti-CD3 Fab. The protocol:
as §4, §6

In another assay the target is T11, CTL-19672 Fab.
T11 construct: anti-CD3 Fab by papain digestion of the IgG1
T11 sequence (VH, as listed by the source limits assumed, chain 1 of 2): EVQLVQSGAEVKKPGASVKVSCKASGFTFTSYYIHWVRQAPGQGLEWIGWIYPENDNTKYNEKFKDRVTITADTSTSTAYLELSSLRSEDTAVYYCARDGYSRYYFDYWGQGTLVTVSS
T11 sequence (VL, as listed by the source limits assumed, chain 2 of 2): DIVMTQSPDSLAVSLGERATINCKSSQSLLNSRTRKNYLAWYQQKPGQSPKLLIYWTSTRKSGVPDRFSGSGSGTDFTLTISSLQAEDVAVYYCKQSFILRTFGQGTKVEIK
Description: BLI; tip ADI-34145 IgG, solution anti-CD3 Fab. How it is done:
as §4, §6

The next assay concerns the target T12, ADI-48587.
T12 construct: pH-dependent anti-CD3 antibody made in CHO cells
The assay is described as follows: SPR Carterra avidity, CHO anti-ID. The protocol: as §1, §2, §3

In the next assay the target is T13, ADI-26927 Fab.
T13 construct: anti-CD3 Fab by papain digestion of the IgG
T13 sequence (VH, as listed by the source limits assumed, chain 1 of 2): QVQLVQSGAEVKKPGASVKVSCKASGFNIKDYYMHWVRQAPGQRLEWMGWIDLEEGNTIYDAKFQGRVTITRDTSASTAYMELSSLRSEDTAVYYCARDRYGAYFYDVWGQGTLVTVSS
Description: BLI; tip ADI-34134 IgG, solution anti-CD3 Fab. How it is done:
as §4, §5

For assay [5], the target named is T10, ADI-22523 Fab. The assay is described as follows: BLI; tip ADI-34134 IgG, solution anti-CD3 Fab. How it is done: as §4, §5
A further assay has as its target T14, ADI-26906 Fab.
T14 construct: anti-CD3 Fab by papain digestion of the IgG
The assay is described as follows: BLI; tip ADI-34134 IgG, solution anti-CD3 Fab. How it is done:
as §4, §5

For a further assay, the target named is T15, ADI-26921 Fab.
T15 construct: anti-CD3 Fab by papain digestion of the IgG
T15 sequence (VH, as listed by the source limits assumed, chain 1 of 2): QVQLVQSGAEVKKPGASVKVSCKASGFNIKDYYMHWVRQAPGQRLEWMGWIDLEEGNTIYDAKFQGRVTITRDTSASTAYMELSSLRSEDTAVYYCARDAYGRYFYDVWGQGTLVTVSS
Description: BLI; tip ADI-34134 IgG, solution anti-CD3 Fab. The protocol: as §4, §5

The next assay deals with T16, ADI-26954 Fab.
T16 construct: anti-CD3 Fab by papain digestion of the IgG
T16 sequence (VH, as listed by the source limits assumed, chain 1 of 2): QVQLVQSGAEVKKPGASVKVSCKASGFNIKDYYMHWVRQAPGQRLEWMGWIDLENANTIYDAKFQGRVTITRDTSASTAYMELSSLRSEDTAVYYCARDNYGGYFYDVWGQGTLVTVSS
T16 sequence (VL, as listed by the source limits assumed, chain 2 of 2): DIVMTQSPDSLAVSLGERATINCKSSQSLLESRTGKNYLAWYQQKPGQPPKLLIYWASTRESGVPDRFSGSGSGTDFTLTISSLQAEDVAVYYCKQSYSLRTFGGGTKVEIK
The assay is described as follows: BLI; tip ADI-34134 IgG, solution anti-CD3 Fab. The protocol:
as §4, §5

The target of the next assay is T17, ADI-26941 Fab.
T17 construct: anti-CD3 Fab by papain digestion of the IgG
T17 sequence (VH, as listed by the source limits assumed, chain 1 of 2): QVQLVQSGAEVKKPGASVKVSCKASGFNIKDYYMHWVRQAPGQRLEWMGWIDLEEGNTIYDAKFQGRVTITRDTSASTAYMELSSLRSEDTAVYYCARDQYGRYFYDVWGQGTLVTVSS
T17 sequence (VL, as listed by the source limits assumed, chain 2 of 2): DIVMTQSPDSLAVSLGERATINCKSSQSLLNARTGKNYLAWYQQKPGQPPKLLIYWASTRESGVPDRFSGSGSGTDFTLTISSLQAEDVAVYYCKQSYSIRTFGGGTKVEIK
Description: BLI; tip ADI-34134 IgG, solution anti-CD3 Fab. The protocol: as §4, §5

The next assay concerns the target T18, ADI-26913 Fab.
T18 construct: anti-CD3 Fab by papain digestion of the IgG
Description: BLI; tip ADI-34134 IgG, solution anti-CD3 Fab. The protocol:
as §4, §5

Another assay concerns the target T19, ADI-26916 Fab.
T19 construct: anti-CD3 Fab by papain digestion of the IgG
The assay is described as follows: BLI; tip ADI-34134 IgG, solution anti-CD3 Fab. How it is done:
as §4, §5

In a further assay the target is T20, ADI-26928 Fab.
T20 construct: anti-CD3 Fab by papain digestion of the IgG
T20 sequence (VH, as listed by the source limits assumed, chain 1 of 2): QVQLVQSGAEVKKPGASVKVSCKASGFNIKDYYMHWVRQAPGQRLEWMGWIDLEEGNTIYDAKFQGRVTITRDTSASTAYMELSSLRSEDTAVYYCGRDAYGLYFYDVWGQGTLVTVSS
Description: BLI; tip ADI-34134 IgG, solution anti-CD3 Fab. How it is done:
as §4, §5

The target of assay [6] is T2, ADI-22523 IgG. The assay is described as follows: BLI; tip anti-CD3 IgG, solution ADI-34134 IgG. The protocol:
as §4, §6

Assay [7] concerns the target T3, ADI-26906 IgG. The assay is described as follows: BLI; tip anti-CD3 IgG, solution ADI-34134 IgG. The protocol:
as §4, §6

Assay [8] addresses T5, ADI-26920 IgG. Description: BLI; tip anti-CD3 IgG, solution ADI-34134 IgG. How it is done:
as §4, §6

In the next assay the target is T21, ADI-26928 IgG.
T21 construct: anti-CD3 IgG
Description: BLI; tip anti-CD3 IgG, solution ADI-34134 IgG. How it is done:
as §4, §6

T3 sequence (VH, as listed by the source limits assumed, chain 1 of 2): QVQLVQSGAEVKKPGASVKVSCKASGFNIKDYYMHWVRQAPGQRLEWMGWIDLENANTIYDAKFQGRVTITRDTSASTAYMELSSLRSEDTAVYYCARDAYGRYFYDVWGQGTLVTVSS
T1 sequence (VH, as listed by the source, chain 1 of 2): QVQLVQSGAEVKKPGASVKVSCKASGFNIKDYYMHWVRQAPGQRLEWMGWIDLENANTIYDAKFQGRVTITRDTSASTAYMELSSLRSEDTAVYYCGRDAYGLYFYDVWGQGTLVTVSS
T12 sequence (VH, as listed by the source, chain 1 of 2): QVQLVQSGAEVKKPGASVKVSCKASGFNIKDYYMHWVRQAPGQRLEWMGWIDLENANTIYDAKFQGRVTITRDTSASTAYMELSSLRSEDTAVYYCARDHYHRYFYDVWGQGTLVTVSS
T12 sequence (VL, as listed by the source, chain 2 of 2): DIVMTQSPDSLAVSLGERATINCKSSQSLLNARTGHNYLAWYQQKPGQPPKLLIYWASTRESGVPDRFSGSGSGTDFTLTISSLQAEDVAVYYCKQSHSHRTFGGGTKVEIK

B1: ADI-34145 IgG (antibody, V domains shown)
VH: EVQLLESGGGLVQPGGSLRLSCAASGFTFSSYAMSWVRQAPGKGLEWVSTISGSGGSTYYADSVKGRFTISRDNSKNTLYLQMNSLRAEDTAVYYCARLGGRRGSGSSYYYYYGMDVWGQGTTVTVSS
VL: not shown
notes: anti-ID IgG
B1: the Kd in the assay with ADI-26924 came to 3.5 nM; with ADI-22523 IgG [1], 2.72 nM; with ADI-26906 IgG [2], 8.39 nM; in the assay with ADI-26916 IgG, 48 nM; with ADI-26920 IgG [3] it was 14.3 nM; with ADI-26954 IgG it was 7.75 nM. Besides, the Kd in the assay with ADI-26913 IgG came out at 8.1 nM; in the assay with ADI-26920 Fab, 3.71 nM; in the assay with ADI-22523 Fab [4], 3.16 nM. Besides, the binding result in the assay with CTL-19613 Fab and in the assay with CTL-19672 Fab was “no binding” throughout.

B2: ADI-34134 IgG (antibody, V domains shown)
VH: QVQLVQSGAEVKKPGSSVKVSCKASGGTFSSYAISWVRQAPGQGLEWMGGIIPIFGTANYAQKFQGRVTITADESTSTAYMELSSLRSEDTAVYYCARGAPNYYGSGGYDDGWFDPWGQGTLVTVSS
VL: EIVLTQSPGTLSLSPGERATLSCRASQSVSSDYLAWYQQKPGQAPRLLIYGASSRATGIPDRFSGSGSGTDFTLTISRLEPEDFAVYYCQQFGRVPTFGGGTKVEIK
As for B2, the Kd with ADI-48587 came to 1.3 nM; with ADI-26927 Fab, 38.2 nM; in the assay with ADI-22523 Fab [5] it was 5.62 nM; in the assay with ADI-26906 Fab, 17.8 nM; with ADI-26921 Fab, 185 nM; in the assay with ADI-26954 Fab, 157 nM. In addition, the Kd with ADI-26941 Fab amounted to 138 nM; with ADI-26913 Fab it was 79.8 nM; with ADI-26916 Fab, 56.5 nM; in the assay with ADI-26928 Fab it was 31 nM; in the assay with ADI-22523 IgG [6] it was 0.37 nM; with ADI-26906 IgG [7] it was 0.43 nM. Also, the Kd is 0.46 nM with ADI-26920 IgG [8] and 0.85 nM with ADI-26928 IgG.
